Among the data in patent US7939490 are Kd values, retold here.

As usually defined, the Kd is a measure of binding affinity in units of concentration.

The assay concerns the target Fn14-Fc fusion protein (murine Fn14 extracellular domain fused to the hinge and Fc of mouse IgG1, with myc and His tags) (murine). In words: ELISA, plate coated with Fn14-Fc, serial dilutions of FLAG-tagged TWEAK. For orientation: In an ELISA, binding on a coated surface is turned into a signal by an enzyme label.

Chain of Fn14-Fc fusion protein (murine Fn14 extracellular domain fused to the hinge and Fc of mouse IgG1, with myc and His tags) (murine) (chain, as listed by the source): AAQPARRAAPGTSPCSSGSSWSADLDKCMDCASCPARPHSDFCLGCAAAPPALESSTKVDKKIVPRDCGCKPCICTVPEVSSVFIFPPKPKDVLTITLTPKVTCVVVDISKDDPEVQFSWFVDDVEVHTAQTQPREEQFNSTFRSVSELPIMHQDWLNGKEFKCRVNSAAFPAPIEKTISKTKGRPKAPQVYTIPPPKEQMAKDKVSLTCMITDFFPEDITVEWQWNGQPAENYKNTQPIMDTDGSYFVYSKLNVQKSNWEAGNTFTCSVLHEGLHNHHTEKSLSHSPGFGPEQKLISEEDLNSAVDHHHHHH

In turn, FLAG epitope-tagged TWEAK (ligand) registered a Kd of 1.1 nM. That is a single-digit nanomolar value.
